Source: patent US7482146B1, “Phenylethanolamine-N-methyltransferase sequence variants” (Mayo Foundation for Medical Education and Research, priority 2003, dated 2009)
Like-named read-outs stand apart in the source and are kept apart here.

Legend:
PNMT [1] = assay: PNMT enzyme activity assay of recombinant allozymes (14C-SAM methylation of octopamine); type: biochemical, human; details: recombinant allozyme in COS-1 cell homogenate; 65.9 μM octopamine, 24.22 μM 14C-SAM; corrected for transfection efficiency
From the text: Recombinant PNMT Expression Constructs and Allozyme Expression: PNMT cDNA sequences for the three non-synonymous cSNPs that were observed during the resequencing experiments were created using the QuickChange Site-Directed Mutagenesis kit (Stratagene, La Jolla, Calif.), using the wild type PNMT cDNA open reading frame (ORF) in the pUni/V5-His-TOPO (pUni) vector (Invitrogen) as template. Specifically, the full-length wild type ORF (GenBank accession number J03727) was amplified using human brain Marathon-Ready cDNA (Clontech) as template. The resultant PNMT cDNA was subcloned into pUni, a vector that is only 2.3 kilobases in length, so it is well suited for performing “circular PCR” during site-directed mutagenesis. […]
PNMT Enzyme Activity: PNMT activity was measured using a method based on that of Molnicoff et al. (1971) J. Pharmacol. Exp. Ther. 178(3):425-431. […] “Blank” samples included the same quantity of COS-115,000×g supernatant from cells that were transfected with “empty” pCR3.1 expression vector, making it possible to correct for endogenous activity. Reaction mixtures were incubated at 37° C. for 30 minutes, and reactions were stopped with 500 μl Borate Buffer (pH 10). ^14C-N-methyl-octopamine was extracted into toluene containing 20% isoamyl alcohol, and radioactivity of the extracted ^14C-N-methyl-octopamine was measured in a liquid scintillation counter. […]

PNMT [2] = assay: Substrate kinetics: apparent Km values of recombinant PNMT allozymes for octopamine and SAM; type: biochemical, human; details: recombinant allozyme from COS-1 cells
Procedure: Expression constructs for the wild type and variant PNMT sequences were transfected into COS-1 cells using the TransFast™ reagent (Promega), with a 1:1 charge ratio. pSV-β-Galactosidase (Promega) was co-transfected as an internal control to make it possible to correct for transfection efficiency. The COS-1 cells were harvested after 48 hours and were homogenized with a Polytron homogenizer (Brinkmann Instruments, Westbury, N.Y.) in 25 mM potassium phosphate buffer, pH 7.8 that contained 1 mM dithiothreitol (DTT) and 1 mM EDTA. Cell homogenates were centrifuged at 15,000×g for 15 minutes, and the resultant supernatant preparations were used for enzyme assays and substrate kinetic studies.
Estimating Apparent Km Values: To estimate apparent Km values of PNMT for the octopamine substrate, a series of octopamine and SAM concentrations were tested with the recombinant allozymes. Blanks for each substrate concentration were included by assaying COS-1 cell cytosol after transfection with empty […] vector. […] Apparent Km values were calculated using the method of Wilkinson with a computer program written by Cleland. Wilkinson supra; and Cleland supra.

B1: WT: recombinant wild type (reference) human PNMT polypeptide, SEQ ID NO:8, expressed in COS-1 cells (protein)
chain: MSGADRSPNAGAAPDSAPGQAAVASAYQRFEPRAYLRNNYAPPRGDLCNPNGVGPWKLRCLAQTFATGEVSGRTLIDIGSGPTVYQLLSACSHFEDITMTDFLEVNRQELGRWLQEEPGAFNWSMYSQHACLIEGKGECWQDKERQLRARVKRVLPIDVHQPQPLGAGSPAPLPADALVSAFCLEAVSPDLASFQRALDHITTLLRPGGHLLLIGALEESWYLAGEARLTVVPVSEEEVREALVRSGYKVRDLRTYIMPAHLQTGVDDVKGVFFAWAQKVGL
modifications: Homo sapien
% WT Enzyme activity (PNMT [1]): 100 % WT | Km (PNMT [2]; substrate SAM, read-out: Apparent Km (SAM)): 6.6 µM | Km (PNMT [2]; substrate octopamine, listed as WT PNMT protein, read-out: Apparent Km (octopamine)): 13.6 µM | Km (PNMT [2]; substrate octopamine, read-out: Apparent Km (octopamine)): 23.5 ± 3.1 µM
